# Laboratory results reported in the DeepSol protein solubility set.
# Experiment: soluble on expression in E. coli; label from the status in PepcDB or PDB records
row,Sequence,soluble on expression in E. coli
1,MAHHHHHHMLRIYDPKETVAFYEKNFGMINIHTYHFDEYNFSLYFLITPPYDEEERKKIPPPNTIESEQYLWNLKTVCLELTHNHNSTEKLSNGNNDNDRGFGHIAFNCQDVTQFCDYLFKEKKVNFHKLPHETKMKSIGFALDPNDYWIEIVKRSSEVKWKDKEGIANFSQTMIRVKNPEKSLYFYLHILGMKLVHIKHASDFSLYFLKSPYVEGNKGGDISTKEKPEGEQNLPPYNFEELKKAYQSDEDYENLKTSWEPVLELTHNHGTENDDQFAYHNGNTEPRGFGHIGFLVDDLANYCQELEKLGIPFKKKIHEGQMNNIAFVYDPDNYLVELIQRGTTFGRN,not soluble
2,MAHHHHHHMLSGAEELISDLFRRTSTTSNAVEFILSSNSAAYHDVMQRICNSNQPQLVKGILRTAQSLLPTELFQVFGKSVVPVLLLFAPAVLRRVGELLAAPKETPLSTCGEWDAFTSFITGIHCKLLASPECRATNVRSLPPPPVAARHTPSWSKVFHGEENVSEGVPPPQPSTDCEVNVTAIGTDNYGSLLCTIVCGLSHLLACVATPPCVIGGPGLTTLCNEVMRLLSSTPVFCYASKDANLQIACVSLLLSVLNLGKAVQGCVASSFMPTMRRWFDLTLYSANAVCIQLLFPYILHARAHR,not soluble
3,MAHHHHHHMLSTNISSNLNNTLVNITGRENKGEWLLYPQSNYEFNIDEKLKNKFIIDKEKCKKRINAYNKNGIRNSVLAIILCHRYEYPHLLLLQHIESQKYYLLNGKYKTWEKPKEVLKKKLQKYINKIKDIHFTPAQINKEQEETVEIGDFLGEWWRTQFNSVFLPYLPAHISRPKEYIRLYQVILSPKCIFHLPPGFTLKAIPLFDLNNCGLAISGLSSILSRFKLHCMVQEQDAEN,not soluble
4,MAHHHHHHMLTTFNIIWKREQAENVNNEKQCKTVSESLGGNAESSESPSSSISEFDQLVNDVEDLLEEQQINETEKLYKISKCPNEKFNKKNKLSITDLSAQLWCEQQLELILTTGKKRETEAMRLGIERHEVLEKADHLIIDVEVNTREESLGYRLLNTIILLEQLYEYKKAREVWVFGVIRGYVLRGIIDELRIEYDHVSRREYLIISDTKTRKEKREPSFAQKKSSAIQVQTYCLLLQHLKSGKADFKKLFEIYECDPTFEFTAIDLIKYKNLENLCKVVNCLFVRLPKIKEEMEIVYEHQGVEFSRNHIPYFYHSTLFTINILLDYWDGKRSSDVVENSDKWKCKFCDFVRNCVRCPLDG,not soluble
5,MAHHHHHHMMDMRQLDVSAVARSAMSCMEAKHMSANVKLYTLGFLTFLASSKSWQPYRMSHPDKVEEQALYEDSELASSFISTKYPAGWQQNASEVLNTKFPGLLGEVTAHLSLGGKDTISALPRRHDGR,not soluble
6,MAHHHHHHMMNKNDITIDENNKYIFRASSFYNKDGLLIKSYSWEVREPLGIIILVHGLASHIRFGFLKQNAKIVNNDHAVLIDGDNYYIYEGSWIEKLNKNGYSVYGLDLQGHGESDGYQNLKLHIKDYDDYIYDLIDFIKSVYESIISKKEKKQMYIRDNDIIETVPIYLVGYSMGANIILRALQLLNKSNDNLISKLNIKAFISLAGMISIKNIGSIDSLKYKYLFLPIIKMLSYVCPTYRLRKKHSGFKRFPYINDLMNFDKLRYKKGMTNKLAYEVIKSVYILKKYINDIPQNVPILFIHSRHDSVCAYEEVLSFYNNLYNTNKEIYTLENMDHVVTLEPENEQALNKMLTWIKKCE,soluble
7,MAHHHHHHMMRSSFVHKAAAAAAGGGMTATSSDHKMASLHKLLTGEVQFRNNALLKTCNIEHNFGATWKSDIEAYAKCLPADERSCLERQVARVMLTRYTTRELAEYCGEGPEHVDAVAREANIAQAKAHAQQYGADKLEAYVKAESKNAGWSEAETKSFLDAVKAAK,soluble
8,MAHHHHHHMMSTYMTRYDYDYNRDPSLTGSDGGSGGGFEQEISGEVRNRPIFAYGVDTGDRDDRTIYQVDYTHKDRSVKNMAGLAATLKGSAASAAAARMRGQDNGTAYQHNWYLPAASAHVVLVDGSHPHTVYQDDYQAPRHVAGGAVHDPVCYAGAAAAAYNADLLKPHGVMEDDGADLAPKITSKESLLPRKHASPNATWTPVFENTADHRHTWNDCVPGDGVVGTYVCTSWDYGDTSQAHPLQLPLSLARSLAAHNLDASANPDKAALLRHLAGKNYSSRTLRGSSSGAPLDTNDRTNPQFLSTVEQKRCAVSRRLEKEHYVTMSIYKSDFIDQGLLPELPGNPGGPADVRDTHTSPLATAGEMMAGQLTTATRELGLLRNAHGTLKSGEAHAASRVSTGVLSAMRAMEKAASIDKADPHCHKLCE,not soluble
9,MAHHHHHHMNASGATASEGKNPPRDARTVSFHPESTFHEQHNAASQRFSHTSEPGWESRESNSGYAAQDGGDTANEGIRRSYYKRLYRFYRKYNPQKLCNVEKLLRECRGEEEQLFAILVGKYGPEPEEESSMLSGDCVFSSAGDSVMHYSGKRCQFPKKVKPEEGNTDCETPYWAGASSLIGDRDLLSLLQNLETPNVELQKCYMGVFAEHPTDCWNGMAYITRAEGIAPANTKFLGHTWVGTLGSGKVLVHEGKKFHRTTLYCTEECQKRGNHERWRLSVYRGEVSYLILLRTVWDPVVVPEPLPLNRSNLSEREVHSSLDGFPTRLSSMSSADSGGSGSRQPIQPPQPQQHTVTPAFVQFTKLLEELESRIIERLEGLERRMSRLENM,not soluble
10,MAHHHHHHMNCKNMDTSYEIINYLTKDELDIDLSCMDKKERYKIWKRLPKCELHCHLDVCFSVDFFLNVIRKYNIQPNMSDEEIIDYYLFSKPGKSLDEFVEKALRLTDIYIDYTVVEDLAKHAVFNKYKEGVVLMEFRYSPSFMSFKHNLDKDLIHEAIVKGLNEAVALLEYKIQVGLLCTGDGGLSHERMKEAAEFCIKHKKDFVGYDHAGHEVDLKPFKDIFDNIREEGISLSVHAGEDVSIPNLNSLYTAINLLHVKRIGHGIRVSESQELIDLVKEKDILLEVCPISNVLLNNVKSMDTHPIRMLYDAGVKVSVNSDDPGMFLTNITDNYEELYTHLNFTLADFMKMNLWAVQKSFVDPDIKNKIISKYF,soluble
11,MAHHHHHHMNCSSTLACHAVVSAPSTASLITSCWTPQQHCYRQLMKSLRAAYFHDRSKLFWSRHRVLVEFYKYSEEANEEAVKQLVAIGLEVAAFIDHHMRTDVERIVKHNETMMALPVAQAKKFRSDYLLAEKQHDSWCKQKIKNIMKRRPPPPYPFF,not soluble
12,MAHHHHHHMNDDNTLALLYEGINLIFDKWTILRLAVTNNWGGINSEDKKKKLIEYVHNFVTNNNAKNKLCDYLRDEMSVLFNVDIEDHSDIEIADLILDLYQNLKKKNYDILEKIKNIQIYDISCSQEKNLIQNYEQGDEENMEDEYSSSNYSEYSNEESLDKE,soluble
13,MAHHHHHHMNERTSGGAMSTIQFGGTMTTTLSQAKNMDFSNDSPRRRRNRHNVILFPNHRDRLACDPLNFFCVYATYEYRWSDTTLEAERNIFALVDSMVAAVRKAFDDAFERWKNMPAFVQHAHTLRSAVSFSSALSTNTLLHMYSHADNVARHTTLRKTLGSMLPSLPAANPRQEMNICSASSAGRSTFSKGALPRAAHRERREEEEEAVMKNLAKQWIPPHNGPKCRLVLDIVASRKTLGDDPVISDPYRLGQKVFSFTRRNYLREVINTFVGISDSGVTLVGRDILYPFRSTGGGSPKPSVKMNSLSGNRRNLSGSAISGLPIDSGDILGVAASGGVAAKVSGFEQILANTIPVPRMVPVPPTNTEKVDNIRLLVCFPPNDISGSVA,soluble
14,MAHHHHHHMNFLNDEILKKSCEIEKLQDRLLDYESKLLIYENNNEIKILKKNEDHLRKLLSKHIHRNEQLLNTTFLLQKSTLENNSLEKKIIELRAKSYRKDQEIKKLQETKSIRKSPSSNCSHNSQEYSMDLIDDLNEDNYNLKYYHNNSIVGDQENSVYTSKKSYDKNITIGSLADTEKRSIKIKNIIPHSHNNEDPVHFALCEYLNCFKKNNLSIKINKLDDNTYLLNDKKVVISFINGDLYVEDDASPIKLQDYLLKTVVR,soluble
15,MAHHHHHHMNIVTSYFLVRKLPGTLAMGGDVLEHQNARQREYMECLRLNQQHPGVASIHLIVEGADAYEHLLKHVLCNPHFQNASTLTTSTAPASARHRRRHAAPIVPVVRFASGMPLYADFFAYANQLLSHRLTMVCNADVYLSPEHFSLSAVEDLFRQSSTLPPPHAAPCGSCQPSTADLAEREAMRPKSAPKRANPLALALTRYESDSPLDAPFLFDYRGSHDAFVLVPPVPPSFVRSVAHPQNCYKAENIVLHELQQSGYLTLNPTLGDGVRLVHRHATDLRQWFPPVDESRYGRAQPNTLAQAASRIREEARVRSLPPSV,not soluble
16,MAHHHHHHMNLDEFNELVEQRNRIEREIQENVNFLEAPENKGVGLHGKLVDEEGFPRNDIDIYSIRVARNKVICLKNDYLNVSKRIEEYLHKVHTSHPVIRVQRSKAKKEEGDDPNESPPESCTQDYDESAPGYELLIEEAKRSTFAMIDELVENSPSHKAGLRINDYIIQFGDVQKKKKKNEENEKEDADIFNRIAAYMRNNPTRIKVKILREGKIFFYFVFPNRTPNGLYIGCHLTPISVGGGSV,not soluble
17,MAHHHHHHMNSSTVSEDIALAGIKKEVLRSLPFWKSFVELREAYHRRPRVFSCDVSIKSRKACSHFVGFDVLWVQSEVVLVSWRRPSKRNRANDFPPEFVEVHLTFGSMHFVHQNVHLVGDHCSYSLQSVVLLQRPEQLQCVAGNMVHFAFLVYGMLHISQRDGFLTDPRAILPPPNSAVMLLGMGGNSMERGIRYILGEDAHIYIAEIEPAVVSTCRFAGLLKENANTHVCLDSAERTIQKCPEKCTFIFMDLFEPLSGNMVNTMPLIRQAFDILAPNGILLINEHSIPTVEHLLPLLHLFGDHNVQFVNVRGWNESIIAATKPGGNADGLGRKCSKRLATDVLNDFDHTFPGWMPDKNYILRSQILYAKPLTLKLRARQWTS,not soluble
18,MAHHHHHHMNVVDFTWSRIRLFDHLAVILIYEELLKNPLCKITNVYESETRKYKPYPLNTLQMTKLVSIYFKISSKECMMLAEKLYNKGYISYPRTETNYFPDSMNLHKIINELRKNDNFGWYANKLCEEHKYQKPRKGKMNDKAHPPIHPVKNMNKSLKVEEKEWKLYEFICKHFLAVCSNDAIGYNTKVTAKIQEEQFFCKGLKIKEKNYLEIYTYEKWNDKIIPSFQVDDEFYPTSLLIEEGITQPPKYLSESNLLTLMDKFSIGTDATMHEHIENIQKRNYVIKNSKSLFIPTNLGIALVQSYKKFKDIGIDLTDPSLRAKMEKDMSLVASGVKQKNEIIRNYIDIMKYIYQEIYNRIDVLDKNIHYYLNNPDQLSYT,not soluble
19,MAHHHHHHMPPQQPVGIMDNEEEFPVEEPPPMDPLIKLLHLRHTYTSQYVDEAVREEVKAAMLKIAHEHNMAPYLRFASEMFCWTVDEEQLRAMDAINATKLEELDARIKDAQENLGDVEVRDGLLARCHHFARIGDMEECLKFNNECSGKTLAAGSKLDLCFQRILLGLAFSDNEVAANGICSAHRLMKEGDWERRNRLKVYEGLFYVYIRDFKKGSELLLDSISTFAASELMDFNEFILVTVVASLPVLSRSQLKKCILDSPEVHSANIKNVFHLVTAIYECRYKEVFPTLDAVCQQLRGIVYLSQHVNYFFREVRVLVFKQFLDSYSSVTLKSMSNAFGIPSPVLDSMLGTLISNERIACKMDRVSDSITTYRGDTTNLDYHRIVKNGDLLLNRIQKLSRLAEV,not soluble
20,MAHHHHHHMPSMSASRQAPKVSATARATKFSTIRKLPTAEHSTSPVAAAPTSSEEPSRLALISFDVDATIDTVNLLHEEQHRVSEEDATDKRIGRYHYAQLVARLNEQRSLYQSTAMFVETMLKEVNHSTEASVAMKASAATWGLKLLAKHAGHGAINAVLESLLPALYCEYNPKKLCSAPPAVQLQVRRPDVIMDNPYFTHSMFVDEVQVDKRSATKLQKSLEAALRANDQRRSIVCHLIERRRQQQLEVTFRCWRHHVRQQHLLRMMGDNTAKQRAEEMSRLRVQTVFYHWKLLVERSRSTYLTERLHEAAFQLENAKNQFQLQCYRADRLVKTAKEATEEMERVSQINKGLQRQVDELKEEQVRKEREYKEKLTRNVTQVLKLLETYDSLARVLLHSKQADEYVMPEKPLLARHSQSGDGGQEASENEASRLR,not soluble
